According to PMC7064499:

Target: FliPQR complex, V. mimicus (FliP5Q4R1) (Vibrio mimicus (strain DSM 19130))
Test: cryo-EM structure

FlhB, V. mimicus (natural protein) gave a stoichiometry N of 1.
